# Measurements from US20240100176A1 (Eli Lilly, published 2024).
# T1: human FcγRIIA_131R (CD32a) extracellular domain (human, UniProt P12318 34-217)
# T1 construct: extracellular domain
# T1 sequence (looked up): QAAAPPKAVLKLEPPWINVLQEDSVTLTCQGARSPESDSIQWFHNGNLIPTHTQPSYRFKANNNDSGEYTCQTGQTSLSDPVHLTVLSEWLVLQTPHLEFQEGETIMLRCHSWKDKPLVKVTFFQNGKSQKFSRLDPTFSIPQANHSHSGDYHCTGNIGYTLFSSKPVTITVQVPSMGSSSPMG
# T2: human FcγRIIA_131H (CD32a) extracellular domain (human, UniProt P12318 34-217)
# T2 construct: extracellular domain
# T2 sequence (looked up): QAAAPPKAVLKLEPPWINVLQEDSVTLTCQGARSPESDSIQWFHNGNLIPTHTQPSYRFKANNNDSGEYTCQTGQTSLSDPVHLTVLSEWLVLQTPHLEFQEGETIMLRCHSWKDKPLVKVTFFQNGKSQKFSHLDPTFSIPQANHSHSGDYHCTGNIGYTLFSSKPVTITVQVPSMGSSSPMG
# T3: human FcγRIIb (CD32b) extracellular domain (human, UniProt P31994 43-217)
# T3 construct: extracellular domain
# T3 sequence (looked up): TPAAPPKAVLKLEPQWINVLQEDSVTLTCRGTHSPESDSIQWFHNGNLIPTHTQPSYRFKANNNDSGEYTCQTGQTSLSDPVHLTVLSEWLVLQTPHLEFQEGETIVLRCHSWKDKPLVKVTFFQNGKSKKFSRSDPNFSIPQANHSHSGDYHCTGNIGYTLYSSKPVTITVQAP
# Legend:
# [1] = target: T4, hexahistidine tagged human IL-4Rα ECD T108R (human, UniProt P24394 26-232); assay: capture ELISA: Ab1 on anti-human IgG Fc, His-tagged receptor at 0.2 µg/mL, anti-His HRP
# T4 construct: also called D108R; not shown: hexahistidine tag
# T4 sequence (P24394 26-232 T133R): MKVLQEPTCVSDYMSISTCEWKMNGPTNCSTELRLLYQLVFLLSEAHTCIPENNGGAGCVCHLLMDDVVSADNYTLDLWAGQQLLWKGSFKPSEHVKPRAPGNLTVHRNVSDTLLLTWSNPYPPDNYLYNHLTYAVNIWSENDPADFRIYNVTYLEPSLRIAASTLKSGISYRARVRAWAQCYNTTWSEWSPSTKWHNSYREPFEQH
# [2] = target: T5, human FcγRIIIA_158V (CD16a) extracellular domain (human, UniProt P08637 17-208); assay: SPR (Biacore), antibody captured on protein A, FcγR ECD as analyte, steady state, 25 °C
# T5 construct: extracellular domain
# T5 sequence (P08637 17-208 F176V): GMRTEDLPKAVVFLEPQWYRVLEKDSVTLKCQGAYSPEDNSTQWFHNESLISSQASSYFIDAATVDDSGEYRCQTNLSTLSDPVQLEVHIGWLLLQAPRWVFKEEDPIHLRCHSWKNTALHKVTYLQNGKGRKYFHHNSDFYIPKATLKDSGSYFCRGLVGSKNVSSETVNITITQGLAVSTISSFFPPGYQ
# Experimental: (§1) Unreacted sites were blocked with a 7 minute injection of ethanolamine at 10 μL/minute. Injections of 2×10 μL of glycine, pH 1.5, was used to remove any noncovalently associated protein. Running buffer was 1×HBS-EP+(TEKNOVA, P/N H8022). The FcγR extracellular domains (ECDs)-FcγRI (CD64), FcγRIIA_131R, and FcγRIIA_131H (CD32a), FcγRIIIA_158V, FcγRIIIA_158F (CD16a), and FcγRIIb (CD32b) were produced from stable CHO cell expression and purified using IgG Sepharose and size exclusion chromatography. For FcγRI binding, antibodies were diluted to […] in running buffer, and approximately 150 RU of each antibody was captured in FCs 2 through 4 (RU captured). FC1 was the reference FC, therefore no antibody was captured in FC1. […] Duplicate injections of each concentration were injected over all FCs at 40 μL/minute for 120 seconds followed by a 1200 second dissociation phase. Regeneration was performed by injecting 15 μL of 10 mM glycine, pH 1.5, at 30 μL/minute over all FCs. Reference-subtracted data was collected as FC2 FC1, FC3-FC1, and FC4-FC1 and the measurements were obtained at 25° C. The affinity (KD) was calculated using either steady state equilibrium analysis with the Scrubber 2 Biacore Evaluation Software or a “1:1 (Langmuir) binding” model in BIA Evaluation. For FcγRIIa, FcγRIIb, and FcγRIIIa binding, antibodies were diluted to 5 μg/mL in running buffer, and approximately 500 RU of each antibody was captured in FCs 2 through 4). FC1 was the reference FC. […] Duplicate injections of each concentration were injected over all FCs at 40 μL/minute for 60 seconds followed by a 120 second dissociation phase. Regeneration was performed by injecting 15 μL of 10 mM glycine, pH 1.5, at 30 μL/minute over all FCs. Reference-subtracted data was collected as FC2-FC1, FC3-FC1, and FC4-FC1, and the measurements were obtained at 25° C. The affinity (KD) was calculated using the steady state equilibrium analysis with the Scrubber 2 Biacore Evaluation Software. Each receptor was assayed at least two times.
# [3] = target: T1, human FcγRIIA_131R (CD32a) …; assay: as above
# Experimental: as §1
# [4] = target: T2, human FcγRIIA_131H (CD32a) …; assay: as above
# Experimental: as §1
# [5] = target: T3, human FcγRIIb (CD32b) extracellular …; assay: as above
# Experimental: as §1
ELISA (OD450) [1],Kd [2],Kd [3],Kd [4],Kd [5],Binder
1.82 OD450,,,,,"anti-human IL-4Rα antibody Ab1 (antibody, human IgG4 S228P, kappa, human kappa light chain; also called anti-human IL-4Rα Ab1; unconjugated Ab1) heavy: QVQLVESGGGLVQPGGSLRLSCVASGFTFSHSSMNWVRQAPGKGLEWVSYISRATGAVYYADSVKGRFTISRDNAKNSLYLQMNSLRDEDTAVYYCAREPVFDYWGQGTLVTVSSASTKGPCVFPLAPCSRSTSESTAALGCLVKDYFPEPVTVSWNSGALTSGVHTFPAVLQSSGLYSLSSVVTVPSSSLGTKTYTCNVDHKPSNTKVDKRVESKYGPPCPPCPAPEFLGGPSVFLFPPKPKDTLMISRTPEVTCVVVDVSQEDPEVKFNWYVDGVEVHNAKTKPREEQFNSTYRVVSVLTVLHQDWLNGKEYKCKVSNKGLPSSIEKTISKAKGQPREPQVYTLPPSREEMTKNQVSLTCLVKGFYPSDICVEWESNGQPENNYKTTPPVLDSDGSFFLYSRLTVDKSRWQQGNVFSCSVMHEALHNHYTQKSLSLSLG light: DIQMTQSPSAMSASVGDRVTITCRASQDISNYLAWFQQKPGKVPTRLIYAASSLQSGVPSRFSGSGSGTEFTLTISSLQPEDFATYYCLQWSSYPRTFGQGTKVEIKRTVAAPSVFIFPPSDEQLKSGTASVVCLLNNFYPREAKVQWKVDNALQSGNSQESVTEQDSKDSTYSLSSTLTLSKADYEKHKVYACEVTHQGLSSPVTKSFNRGEC"
,4920 nM,1820 nM,3650 nM,1960 nM,"anti-human IL-4Rα Ab1 GC conjugate of Example 1b (n=4) (antibody, human IgG4 S228P, kappa, glucocorticoid receptor agonist payload-linker (GC-L, Preparation 8) conjugated to the engineered cysteines at the 124 and 378 position of the heavy chain (EU numbering); n is 4 (average DAR 4.17 by RP-HPLC, 3.85 by TOF MS)) heavy: QVQLVESGGGLVQPGGSLRLSCVASGFTFSHSSMNWVRQAPGKGLEWVSYISRATGAVYYADSVKGRFTISRDNAKNSLYLQMNSLRDEDTAVYYCAREPVFDYWGQGTLVTVSSASTKGPCVFPLAPCSRSTSESTAALGCLVKDYFPEPVTVSWNSGALTSGVHTFPAVLQSSGLYSLSSVVTVPSSSLGTKTYTCNVDHKPSNTKVDKRVESKYGPPCPPCPAPEFLGGPSVFLFPPKPKDTLMISRTPEVTCVVVDVSQEDPEVKFNWYVDGVEVHNAKTKPREEQFNSTYRVVSVLTVLHQDWLNGKEYKCKVSNKGLPSSIEKTISKAKGQPREPQVYTLPPSREEMTKNQVSLTCLVKGFYPSDICVEWESNGQPENNYKTTPPVLDSDGSFFLYSRLTVDKSRWQQGNVFSCSVMHEALHNHYTQKSLSLSLG light: DIQMTQSPSAMSASVGDRVTITCRASQDISNYLAWFQQKPGKVPTRLIYAASSLQSGVPSRFSGSGSGTEFTLTISSLQPEDFATYYCLQWSSYPRTFGQGTKVEIKRTVAAPSVFIFPPSDEQLKSGTASVVCLLNNFYPREAKVQWKVDNALQSGNSQESVTEQDSKDSTYSLSSTLTLSKADYEKHKVYACEVTHQGLSSPVTKSFNRGEC"
